Assay results published in article PMC8092592.

Columns and labels:
[1] = target: protein origami tetrahedron TET12SN; test: ITC; nanobody titrated into the CC peptide dimer, the origami protein or a preformed nanobody-target complex; conditions in SI Appendix
[2] = substrate: CC protein origami tetrahedron TET12SN; test: ITC; nanobody in the syringe titrated into the cell with TET12SN or a tetrahedron variant (2-5 µM), CC peptide dimer (5-10 µM) or a complex preformed by a first titration; MicroCal VP-ITC, 25 °C; 20 mM sodium phosphate pH 7.0, 150 mM NaCl; independent binding sites model (SEDPHAT), errors by Monte-Carlo
[3] = target: preformed Nb28_(2)-TET12SN complex (llama); test: ITC; nanobody titrated into the CC peptide dimer, the origami protein or a preformed nanobody-target complex; conditions in SI Appendix
[4] = substrate: CC protein origami tetrahedron TET12SN; test: ITC; titrations at 18, 25 and 32 °C fitted globally (independent binding sites, temperature-independent heat capacity); parameters reported at 25 °C; 20 mM sodium phosphate pH 7.0, 150 mM NaCl
[5] = target: preformed Nb28_2-TET12SN complex (llama); test: ITC; nanobody in the syringe titrated into the cell with TET12SN or a tetrahedron variant (2-5 µM), CC peptide dimer (5-10 µM) or a complex preformed by a first titration; MicroCal VP-ITC, 25 °C; 20 mM sodium phosphate pH 7.0, 150 mM NaCl; independent binding sites model (SEDPHAT), errors by Monte-Carlo
[6] = target: preformed Nb28_2-TET12SN(22CC) complex (llama); test: as above
[7] = substrate: CC protein origami tetrahedron variant TET12SN(22CC); test: as above; conditions: for stoichiometry N: scale: nanobody per TET12SN(22CC)
[8] = target: preformed Nb30_(2)-TET12SN complex (llama); test: ITC; nanobody titrated into the CC peptide dimer, the origami protein or a preformed nanobody-target complex; conditions in SI Appendix
[9] = target: preformed Nb30_2-TET12SN complex (llama); test: ITC; titrations at 18, 25 and 32 °C fitted globally (independent binding sites, temperature-independent heat capacity); parameters reported at 25 °C; 20 mM sodium phosphate pH 7.0, 150 mM NaCl
[10] = target: preformed Nb30_2-TET12SN complex (llama); test: ITC; nanobody in the syringe titrated into the cell with TET12SN or a tetrahedron variant (2-5 µM), CC peptide dimer (5-10 µM) or a complex preformed by a first titration; MicroCal VP-ITC, 25 °C; 20 mM sodium phosphate pH 7.0, 150 mM NaCl; independent binding sites model (SEDPHAT), errors by Monte-Carlo

Row | Kd [1] | stoichiometry N (nanobody per TET12SN (cell:syringe)) [2] | Kd [4] | stoichiometry N (nanobody per TET12SN (cell:syringe)) [4] | Kd [7] | stoichiometry N [7] | Binder | further results
1 | 21 µM | 1 |  |  |  |  | nanobody Nb34 (VHH) VHH: QVQLQESGGGLVQPGGSLRLSCAASQFTFSSDWMYWVRQAPGKGLEWVSSISPGGAATAYAASVKGRFTISRDNAKNTLYLQMNSLKSEDTAVYYCSKTRAGTGRGQGTQVTVSS | 
2 |  | 2 |  |  |  |  | nanobody Nb39 (VHH) VHH: QVQLQESGGGLVQAGGSLRLSCAASGSIFSINVMGWYRQAPGKQRELLASITSRGSTNYADSVKDRFTISRDNAKNTVYLQINSLKPEDTAVYYCNSRGWTTTRGDYDYWGQGTQVTVSS | KD, high-affinity site [1]: 0.027 µM; KD, second binding site [1]: 2 µM
3 | 0.16 µM | 2 |  |  |  |  | nanobody Nb49 (VHH) VHH: QVQLQESGGGLVQPGGSLRLSCIASGRTFNPYGMGWFRQVPGKERTFVSGITWIGGTTYYVNSVKGRFTISRDRAKNTVYLQMNSLKPEDTAVYYCAADKDNTGYNYWGQGTQVTVSS | 

The next lines start with the binder.

Row | Binder | Kd [1] | stoichiometry N (nanobody per TET12SN (cell:syringe)) [2] | Kd [4] | stoichiometry N (nanobody per TET12SN (cell:syringe)) [4] | Kd [7] | stoichiometry N [7] | further results
4 | nanobody Nb30 (VHH) VHH: QVQLQESGGGLVQPGGSLRLSCAASGSIFSDNDMGWYRQPPGKQREWVATITYDHVTWYADSVKGRFAISRDNAKNTVYLQMNDLKPEDTAVYYCNAVPGRRGSWGQGTQVTVSS | 0.35 µM | 2 | 0.16 µM | 2 | 0.27 µM | 2 | Kd [3]: 0.026 µM; stoichiometry N (nanobody per complex (cell:syringe)) [5]: 2; Kd [6]: 0.024 µM; stoichiometry N (nanobody per complex (cell:syringe)) [6]: 2
5 | nanobody Nb28 (VHH) VHH: QVQLQESGGGLVQPGGSLRLSCAAPGFRLDNYVIGWFRQAPGKEREGVSCISSSAGSTYYADSVKGRFTISRDNAKNTVYLQMNSLKPEDTAVYYCATACYSSYVTYWGQGTQVTVSS | 0.039 µM | 2 | 0.019 µM | 2 | 0.027 µM | 2 | Kd [8]: 0.002 µM; Kd [9]: 0.0016 µM; stoichiometry N (nanobody per complex (cell:syringe)) [9]: 2; Kd [10]: 0.0023 µM; stoichiometry N (nanobody per complex (cell:syringe)) [10]: 2
6 | nanobody Nb26 (VHH) VHH: QVQLQESGGGLVQAGDSLRLSCAASGRTFSTYPMGWFRQAPGKEREFVAASSSRAYYADSVKGRFTISRNNAKNTVYLQMNSLKPEDTAVYYCVADSSPYYRRYDAAQDYDYWGQGTQVTVSS | 0.0018 µM | 2 |  |  |  |  | 
